Experimental data from article PMC6874086.
Where two headings read alike, the source gives them in different places.

Key:
VPS4A/B [1] = target: VPS4A/B (UniProt Q9UN37); conditions: parent: est. 100; read off a plot
VPS4A/B [2] = target: VPS4A/B (UniProt Q9UN37); conditions: parent: est. 100; read off a plot; remark: listed apart in the source

Sequence of UniProt Q9UN37 (Q9UN37 whole entry): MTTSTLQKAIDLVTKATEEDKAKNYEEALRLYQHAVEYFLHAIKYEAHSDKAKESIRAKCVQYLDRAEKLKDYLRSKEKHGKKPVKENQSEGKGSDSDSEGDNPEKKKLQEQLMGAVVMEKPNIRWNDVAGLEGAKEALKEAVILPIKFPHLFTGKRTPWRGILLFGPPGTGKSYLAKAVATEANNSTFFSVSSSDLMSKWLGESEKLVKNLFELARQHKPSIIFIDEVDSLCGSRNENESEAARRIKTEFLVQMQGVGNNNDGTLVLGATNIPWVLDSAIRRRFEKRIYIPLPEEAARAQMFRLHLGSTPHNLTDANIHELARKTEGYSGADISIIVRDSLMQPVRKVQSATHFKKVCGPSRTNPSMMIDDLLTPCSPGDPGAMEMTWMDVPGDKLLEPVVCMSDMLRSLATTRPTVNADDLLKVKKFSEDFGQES

Question: How did the percent of parent (VPS4A/B [1]) turn out when “LCMV Z WT with a C-terminal streptavidin binding peptide (SBP) tag (from UniProt P18541) K5R; K10R; K33R; K38R; K69R; K77R” was run?
Answer: 23 % of WT

Question: What about the percent of parent (VPS4A/B [2]) of the same substance?
Answer: 24 % of WT
